Test [1] concerns the target T1, human RAGE-Fc fusion protein (human, UniProt Q15109 23-344).
T1 construct: also called hRAGE-Fc; huRAGE-Fc; not shown: Fc domain of human IgG
Put plainly: ligand competition ELISA, panel Blocks hRAGE-Fc interaction with S100-B; blocked ligand S100-B.

For test [2], the target named is T1, human RAGE-Fc fusion protein. Put plainly: ligand competition ELISA, panel Blocks hRAGE-Fc interaction with S100-A; blocked ligand S100-A. Background: ELISA stands for enzyme-linked immunosorbent assay.
For test [3] the target is unchanged. The test can be described thus: ligand competition ELISA, panel Blocks hRAGE-Fc interaction with HMGB1; blocked ligand HMGB1. On the procedure:
Wells were washed and blocked as described above and exposed to 100 μl of pre-incubated mixtures of RAGE-Fc or TrkB-Fc (a non-specific Fc control), at 0.1 μg/ml, plus various forms of the indicated antibody preparation (dilutions of immune sera, hybridoma supernatants or purified antibodies) for 1 hour at room temperature.

The target in test [4] is T2, murine RAGE-strep tag fusion protein (mouse, UniProt Q62151 23-343).
T2 construct: also called mRAGE-strep; mRAGE-SA
T2 chain: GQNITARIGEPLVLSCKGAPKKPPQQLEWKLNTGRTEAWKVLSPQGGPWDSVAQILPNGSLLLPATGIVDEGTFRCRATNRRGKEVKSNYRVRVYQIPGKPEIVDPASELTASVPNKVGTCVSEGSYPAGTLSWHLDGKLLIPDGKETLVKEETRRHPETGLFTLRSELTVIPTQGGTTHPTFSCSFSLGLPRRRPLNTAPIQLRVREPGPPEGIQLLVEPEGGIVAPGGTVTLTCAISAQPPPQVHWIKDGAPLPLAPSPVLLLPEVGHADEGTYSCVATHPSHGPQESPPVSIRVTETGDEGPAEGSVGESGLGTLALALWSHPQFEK
The test can be described thus: ELISA, mRAGE-strep.

Test [5] addresses T1, human RAGE-Fc fusion protein. The test can be described thus: antibody competition ELISA on hRAGE-Fc; competitor biotinylated XT-M4.
Test [6] addresses T3, human RAGE V-region-Fc fusion protein (human, UniProt Q15109 23-118).
T3 construct: also called hRAGE V-domain-Fc; hRAGE-V-Fc (CM); not shown: Fc domain of human IgG
The test can be described thus: direct binding ELISA, coated hRAGE V-region-Fc. On the procedure: (§1) Antibodies were purified from hybridoma supernatants using standard procedures. Purified antibodies were evaluated for binding to soluble forms of RAGE with the use of ELISA. […] After washing and blocking with PBS containing 1% BSA and 0.05% Tween-20, 100 ul of sample (samples were in several forms: diluted immune serum, hybridoma supernatants, or purified antibodies, as indicated) was added and incubated for 1 hour at room temperature. The plates were washed with PBS, pH 7.2 and bound anti-RAGE antibodies were detected with the use of peroxidase-conjugated goat, anti-mouse IgG (H+L) (IgG) (Pierce, Rockford, Ill.) followed by incubation with the substrate TMB (BioFX Laboratories Owings Mills, Md. Laboratories). Absorbance values were determined at 450 nm in a spectrophotometer. The concentrations of monoclonal antibodies were determined with the use of peroxidase-labeled goat, anti-mouse IgG (Fcγ) (Pierce Rockford, Ill.) and a standard curve was generated by a purified, isotype-matched mouse IgG.

In test [7] the target is T1, human RAGE-Fc fusion protein. Put plainly: direct binding ELISA, coated hRAGE-Fc. On the procedure: as §1
Test [8] has as its target T4, cynomolgus monkey RAGE (cynomolgus monkey (Macaca fascicularis), UniProt Q15109 23-404 (human entry)).
T4 construct: On transfected 293 cells or endogenous in monkey lung sections; also called 293-cyno monkey RAGE; RAGE in monkey lung
T4 chain: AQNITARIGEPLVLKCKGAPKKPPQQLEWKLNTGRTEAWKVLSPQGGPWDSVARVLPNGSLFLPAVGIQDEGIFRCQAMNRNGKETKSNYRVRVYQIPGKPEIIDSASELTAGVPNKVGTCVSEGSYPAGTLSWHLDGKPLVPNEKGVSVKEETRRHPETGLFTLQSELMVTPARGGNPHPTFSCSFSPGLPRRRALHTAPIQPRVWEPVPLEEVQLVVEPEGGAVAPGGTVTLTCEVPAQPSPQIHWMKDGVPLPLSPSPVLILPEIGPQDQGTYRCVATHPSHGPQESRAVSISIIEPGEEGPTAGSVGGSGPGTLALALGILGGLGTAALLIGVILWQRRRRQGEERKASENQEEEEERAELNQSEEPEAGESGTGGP
Put plainly: cell-based ELISA, 293 cells transfected with cynomolgus monkey RAGE. On the procedure:
Human embryonic kidney 293 cells (American Tissue Type Culture, Manassas, Va.) cells were plated at 5×10⁶ cells per 10 cm² tissue culture plate and cultured overnight at 37° C. The next day cells were transfected with RAGE expression plasmids (pAdori1-3 vector encoding mouse, human, baboon, cynomologus monkey or rabbit RAGE) using LF2000 reagent (Invitrogen, Carlsbad Calif.) at a 4:1 ratio of reagent to plasmid DNA using the manufacturers protocol. Cells were harvested 48 hrs post-transfection using trypsin, washed once with phosphate buffered saline (PBS), then suspended in growth media without serum at a concentration of 2×10⁶ cells/ml.
Primary antibodies at 1 μg/ml were serially diluted at 1:2 or 1:3 in PBS containing 1% bovine serum albumin (BSA) in a 96-well plate. RAGE-transfected 293 cells or control parental 293 cells (50 μl) at 2×10⁶ cells/ml in serum-free growth medium were added to U-bottom 96 well plate for a final concentration of 1×10⁵ cells/well. The cells were centrifuged at 1600 rpm for 2 minutes. The supernatants were gently discarded by hand with a one-time swing and the plate was patted gently to loose the cell pellet. […] The cells were centrifuged and the supernatants are transferred to a fresh plate and read at 450 nm (Soft MAX pro 4.0, Molecular Devices Corporation, Sunnyvale, Calif.).

B1: XT-M4 (antibody, rat IgG2b, V domains shown)
VH: EVQLVESGGGLVQPGRSLKLSCVVSGFTFNNYWMTWIRQTPGKGLEWVASINNSGDNTYYPDSVKDRFTISRDNAKSTLYLQMNSLRSEDTATYYCTRGGDITTGFDYWGQGVMVTVSS
VL: DIQMTQSPSSMSVSLGDTITITCRASQDVGIYVNWFQQKPGKSPRRMIYRATNLADGVPSRFSGSRSGSIYSLTISSLESEDVADYHCLEFDEHPLTFGSGTKVEIK
notes: also called 1mRAGEP3/10; rat XT-M4
For orientation: EC50 means the midpoint of the concentration-response curve. Take B1: the “IC50 (read off the curve)” value in test [1] is about 0.1 µg/mL; in test [2], about 0.07 µg/mL; in test [3], about 0.1 µg/mL; in test [5], about 0.4 µg/mL. Moreover, the binding result in test [4] is recorded as “binds”. Further, the EC50 is 0.1 nM in test [6], 0.3 nM in test [7] and about 2.33 nM in test [8].
